Tested on: plasma proteins
Assay: Plasma proteins modulated between baseline and day 28 in responders (CR, VGPR, PR; n = 19), Example 6 (Table 13)
Assay type: in vivo, human
Conditions: plasma protein (OLINK NPX); responders (CR, VGPR, PR; n = 19); itacitinib 200 mg or 300 mg QD with corticosteroids; day 28 vs baseline
Method in brief: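 Longitudinal comparison, day 28 versus baseline, with steroid-naive (N=10) and steroid-refractory (N=18) patients combined. Proteins measured by OLINK proximity extension, log2 normalized protein expression. Differences tested by t tests, ANOVA, Pearson correlation, P<0.05 significant.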

| Molecule | Fold Change, Decreased Expression from Baseline to Day 28 | Fold Change, Increased Expression from Baseline to Day 28 |
| --- | --- | --- |
| WASF1 (protein, UniProt Q92558 1-559, looked up) Actin-binding protein WASF1: MPLVKRNIDPRHLCHTALPRGIKNELECVTNISLANIIRQLSSLSKYAEDIFGELFNEAHSFSFRVNSLQERVDRLSVSVTQLDPKEEELSLQDITMRKAFRSSTIQDQQLFDRKTLPIPLQETYDVCEQPPPLNILTPYRDDGKEGLKFYTNPSYFFDLWKEKMLQDTEDKRKEKRKQKQKNLDRPHEPEKVPRAPHDRRREWQKLAQGPELAEDDANLLHKHIEVANGPASHFETRPQTYVDHMDGSYSLSALPFSQMSELLTRAEERVLVRPHEPPPPPPMHGAGDAKPIPTCISSATGLIENRPQSPATGRTPVFVSPTPPPPPPPLPSALSTSSLRASMTSTPPPPVPPPPPPPATALQAPAVPPPPAPLQIAPGVLHPAPPPIAPPLVQPSPPVARAAPVCETVPVHPLPQGEVQGLPPPPPPPPLPPPGIRPSSPVTVTALAHPPSGLHPTPSTAPGPHVPLMPPSPPSQVIPASEPKRHPSTLPVISDARSVLLEAIRKGIQLRKVEEQREQEAKHERIENDVATILSRRIAVEYSDSEDDSEFDEVDWLE | −1.5354 | – |
| WAS (protein, UniProt P42768 2-502, looked up) Actin nucleation-promoting …: SGGPMGGRPGGRGAPAVQQNIPSTLLQDHENQRLFEMLGRKCLTLATAVVQLYLALPPGAEHWTKEHCGAVCFVKDNPQKSYFIRLYGLQAGRLLWEQELYSQLVYSTPTPFFHTFAGDDCQAGLNFADEDEAQAFRALVQEKIQKRNQRQSGDRRQLPPPPTPANEERRGGLPPLPLHPGGDQGGPPVGPLSLGLATVDIQNPDITSSRYRGLPAPGPSPADKKRSGKKKISKADIGAPSGFKHVSHVGWDPQNGFDVNNLDPDLRSLFSRAGISEAQLTDAETSKLIYDFIEDQGGLEAVRQEMRRQEPLPPPPPPSRGGNQLPRPPIVGGNKGRSGPLPPVPLGIAPPPPTPRGPPPPGRGGPPPPPPPATGRSGPLPPPPPGAGGPPMPPPPPPPPPPPSSGNGPAPPPLPPALVPAGGLAPGGGRGALLDQIRQGIQLNKTPGAPESSALQPPPQSSEGLVGALMHVMQKRSRAIHSSDEGEDQAGDEDEDDEWDD | −2.133 | – |
| COMT (protein, UniProt P21964 1-271, looked up) Catechol O-methyltransferase: MPEAPPLLLAAVLLGLVLLVVLLLLLRHWGWGLCLIGWNEFILQPIHNLLMGDTKEQRILNHVLQHAEPGNAQSVLEAIDTYCEQKEWAMNVGDKKGKIVDAVIQEHQPSVLLELGAYCGYSAVRMARLLSPGARLITIEINPDCAAITQRMVDFAGVKDKVTLVVGASQDIIPQLKKKYDVDTLDMVFLDHWKDRYLPDTLLLEECGLLRKGTVLLADNVICPGAPDFLAHVRGSSCFECTHYQSFLEYREVVDGLEKAIYKGPGSEAGP | −1.4304 | – |
| RETN (protein, UniProt Q9HD89 19-108, looked up) Resistin: KTLCSMEEAINERIQEVAGSLIFRAISSIGLECQSVTSRGDLATCPRGFAVTGCTCGSACGSWDVRAETTCHCQCAGMDWTGARCCRVQP | −1.8687 | – |
| SH2D1A (protein, UniProt O60880 1-128, looked up) SH2 domain-containing protein …: MDAVAVYHGKISRETGEKLLLATGLDGSYLLRDSESVPGVYCLCVLYHGYIYTYRVSQTETGSWSAETAPGVHKRYFRKIKNLISAFQKPDQGIVIPLQYPVEKKSSARSTQGTTGIREDPDVCLKAP | −1.1574 | – |
| RNASE3 (protein, UniProt P12724 28-160, looked up) Eosinophil cationic protein: RPPQFTRAQWFAIQHISLNPPRCTIAMRAINNYRWRCKNQNTFLRTTFANVVNVCGNQSIRCPHNRTLNNCHRSRFRVPLLHCDLINPGAQNISNCTYADRPGRRFYVVACDNRDPRDSPRYPVVPVHLDTTI | −2.6612 | – |
| PAR-1 (protein, UniProt P25116 42-425, looked up) Proteinase-activated receptor …: SFLLRNPNDKYEPFWEDEEKNESGLTEYRLVSINKSSPLQKQLPAFISEDASGYLTSSWLTLFVPSVYTGVFVVSLPLNIMAIVVFILKMKVKKPAVVYMLHLATADVLFVSVLPFKISYYFSGSDWQFGSELCRFVTAAFYCNMYASILLMTVISIDRFLAVVYPMQSLSWRTLGRASFTCLAIWALAIAGVVPLLLKEQTIQVPGLNITTCHDVLNETLLEGYYAYYFSAFSAVFFFVPLIISTVCYVSIIRCLSSSAVANRSKKSRALFLSAAVFCIFIICFGPTNVLLIAHYSFLSHTSTTEAAYFAYLLCVCVSSISCCIDPLIYYYASSECQRYVYSILCCKESSDPSSYNSSGQLMASKMDTCSSNLNNSIYKKLLT | −1.2074 | – |
| CD69 (protein, UniProt Q07108 1-199, looked up) Early activation antigen CD69: MSSENCFVAENSSLHPESGQENDATSPHFSTRHEGSFQVPVLCAVMNVVFITILIIALIALSVGQYNCPGQYTFSMPSDSHVSSCSEDWVGYQRKCYFISTVKRSWTSAQNACSEHGATLAVIDSEKDMNFLKRYAGREEHWVGLKKEPGHPWKWSNGKEFNNWFNVTGSDKCVFLKNTEVSSMECEKNLYWICNKPYK | −1.7621 | – |
| CCL25 (protein, UniProt O15444 24-150, looked up) C-C motif chemokine 25: QGVFEDCCLAYHYPIGWAVLRRAWTYRIQEVSGSCNLPAAIFYLPKRHRKVCGNPKSREVQRAMKLLDARNKVFAKLHHNTQTFQAGPHAVKKLSSGNSKLSSSKFSNPISSSKRNVSLLISANSGL | – | 2.106 |
| BCR (protein, UniProt P11274 1-1271, looked up) Breakpoint cluster region …: MVDPVGFAEAWKAQFPDSEPPRMELRSVGDIEQELERCKASIRRLEQEVNQERFRMIYLQTLLAKEKKSYDRQRWGFRRAAQAPDGASEPRASASRPQPAPADGADPPPAEEPEARPDGEGSPGKARPGTARRPGAAASGERDDRGPPASVAALRSNFERIRKGHGQPGADAEKPFYVNVEFHHERGLVKVNDKEVSDRISSLGSQAMQMERKKSQHGAGSSVGDASRPPYRGRSSESSCGVDGDYEDAELNPRFLKDNLIDANGGSRPPWPPLEYQPYQSIYVGGMMEGEGKGPLLRSQSTSEQEKRLTWPRRSYSPRSFEDCGGGYTPDCSSNENLTSSEEDFSSGQSSRVSPSPTTYRMFRDKSRSPSQNSQQSFDSSSPPTPQCHKRHRHCPVVVSEATIVGVRKTGQIWPNDGEGAFHGDADGSFGTPPGYGCAADRAEEQRRHQDGLPYIDDSPSSSPHLSSKGRGSRDALVSGALESTKASELDLEKGLEMRKWVLSGILASEETYLSHLEALLLPMKPLKAAATTSQPVLTSQQIETIFFKVPELYEIHKEFYDGLFPRVQQWSHQQRVGDLFQKLASQLGVYRAFVDNYGVAMEMAEKCCQANAQFAEISENLRARSNKDAKDPTTKNSLETLLYKPVDRVTRSTLVLHDLLKHTPASHPDHPLLQDALRISQNFLSSINEEITPRRQSMTVKKGEHRQLLKDSFMVELVEGARKLRHVFLFTDLLLCTKLKKQSGGKTQQYDCKWYIPLTDLSFQMVDELEAVPNIPLVPDEELDALKIKISQIKNDIQREKRANKGSKATERLKKKLSEQESLLLLMSPSMAFRVHSRNGKSYTFLISSDYERAEWRENIREQQKKCFRSFSLTSVELQMLTNSCVKLQTVHSIPLTINKEDDESPGLYGFLNVIVHSATGFKQSSNLYCTLEVDSFGYFVNKAKTRVYRDTAEPNWNEEFEIELEGSQTLRILCYEKCYNKTKIPKEDGESTDRLMGKGQVQLDPQALQDRDWQRTVIAMNGIEVKLSVKFNSREFSLKRMPSRKQTGVFGVKIAVVTKRERSKVPYIVRQCVEEIERRGMEEVGIYRVSGVATDIQALKAAFDVNNKDVSVMMSEMDVNAIAGTLKLYFRELPEPLFTDEFYPNFAEGIALSDPVAKESCMLNLLLSLPEANLLTFLFLLDHLKRVAEKEAVNKMSLHNLATVFGPTLLRPSEKESKLPANPSQPITMTDSWSLEVMSQVQVLLYFLQLEAIPAPDSKRQSILFSTEV | −1.8219 | – |
| FR-gamma (protein, UniProt P41439 23-245, looked up) Folate receptor gamma: QPRSARARTDLLNVCMNAKHHKTQPSPEDELYGQCSPWKKNACCTASTSQELHKDTSRLYNFNWDHCGKMEPTCKRHFIQDSCLYECSPNLGPWIRQVNQSWRKERILNVPLCKEDCERWWEDCRTSYTCKSNWHKGWNWTSGINECPAGALCSTFESYFPTPAALCEGLWSHSFKVSNYSRGSGRCIQMWFDSAQGNPNEEVAKFYAAAMNAGAPSRGIIDS | −1.2115 | – |
| ADAM 8 (protein, UniProt P78325 17-824, looked up) Disintegrin and …: IAPSRPWALMEQYEVVLPWRLPGPRVRRALPSHLGLHPERVSYVLGATGHNFTLHLRKNRDLLGSGYTETYTAANGSEVTEQPRGQDHCFYQGHVEGYPDSAASLSTCAGLRGFFQVGSDLHLIEPLDEGGEGGRHAVYQAEHLLQTAGTCGVSDDSLGSLLGPRTAAVFRPRPGDSLPSRETRYVELYVVVDNAEFQMLGSEAAVRHRVLEVVNHVDKLYQKLNFRVVLVGLEIWNSQDRFHVSPDPSVTLENLLTWQARQRTRRHLHDNVQLITGVDFTGTTVGFARVSAMCSHSSGAVNQDHSKNPVGVACTMAHEMGHNLGMDHDENVQGCRCQERFEAGRCIMAGSIGSSFPRMFSDCSQAYLESFLERPQSVCLANAPDLSHLVGGPVCGNLFVERGEQCDCGPPEDCRNRCCNSTTCQLAEGAQCAHGTCCQECKVKPAGELCRPKKDMCDLEEFCDGRHPECPEDAFQENGTPCSGGYCYNGACPTLAQQCQAFWGPGGQAAEESCFSYDILPGCKASRYRADMCGVLQCKGGQQPLGRAICIVDVCHALTTEDGTAYEPVPEGTRCGPEKVCWKGRCQDLHVYRSSNCSAQCHNHGVCNHKQECHCHAGWAPPHCAKLLTEVHAASGSLPVFVVVVLVLLAVVLVTLAGIIVYRKARSRILSRNVAPKTTMGRSNPLFHQAASRVPAKGGAPAPSRGPQELVPTTHPGQPARHPASSVALKRPPPAPPVTVSSPPFPVPVYTRQAPKQVIKPTFAPPVPPVKPGAGAANPGPAEGAVGPKVALKPPIQRKQGAGAPTAP | −1.3896 | – |
| AZU1 (protein, UniProt P20160 27-248, looked up) Azurocidin: IVGGRKARPRQFPFLASIQNQGRHFCGGALIHARFVMTAASCFQSQNPGVSTVVLGAYDLRRRERQSRQTFSISSMSENGYDPQQNLNDLMLLQLDREANLTSSVTILPLPLQNATVEAGTRCQVAGWGSQRSGGRLSRFPRFVNVTVTPEDQCRPNNVCTGVLTRRGGICNGDGGTPLVCEGLAHGVASFSLGPCGRGPDFFTRVALFRDWIDGVLNNPGP | −2.0976 | – |
| SDC4 (protein, UniProt P31431 19-198, looked up) Syndecan-4: ESIRETEVIDPQDLLEGRYFSGALPDDEDVVGPGQESDDFELSGSGDLDDLEDSMIGPEVVHPLVPLDNHIPERAGSGSQVPTEPKKLEENEVIPKRISPVEESEDVSNKVSMSSTVQGSNIFERTEVLAALIVGGIVGILFAVFLILLLMYRMKKKDEGSYDLGKKPIYKKAPTNEFYA | −1.4678 | – |

— patent publication US12099068B2, “Biomarkers for graft-versus-host disease” (Incyte Corporation, priority 2018, dated 2024)
